# Assay results from patent US20130034493A1 (RESEARCH DEVELOPMENT FOUNDATION, published 2013).
# T1: recombinant BMP4 (rBMP4) (mouse, UniProt P21275 293-408, limits assumed)
# T1 sequence (looked up): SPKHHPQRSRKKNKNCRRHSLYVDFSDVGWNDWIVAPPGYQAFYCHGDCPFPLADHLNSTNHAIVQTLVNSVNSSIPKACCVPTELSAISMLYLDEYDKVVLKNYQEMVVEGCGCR
# B1: mouse recombinant Olfml3-FLAG tagged protein (rOlfml3-FLAG) (other, not shown: small tags and cut ends)
# chain: QQHHLVEYMERRLAALEERLAQCQDQSSRHAAELRDFKNKMLPLLEVAEKERETLRTEADSISGRVDRLEREVDYLETQNPALPCVELDEKVTGGPGAKGKGRRNEKYDMVTDCSYTVAQVRSMKILKRFGGSVGLWTKDPLGPAEKIYVLDGTQNDTAFVFPRLRDFTLAMAARKASRIRVPFPWVGTGQLVYGGFLYYARRPPGGPGGGGELENTLQLIKFHLANRTVVDSSVFPAESLIPPYGLTADTYIDLAADEEGLWAVYATRDDDRHLCLAKLDPQTLDTEQQWDTPCPRENAEAAFVICGTLYVVYNTRPASRARIQCSFDASGTLAPERAALSYFPRRYGAHASLRYNPRERQLYAWDDGYQIVYKLEMKKKEEEV
# Target: T1, recombinant BMP4 (rBMP4)
# Assay: cell-based or functional assay
binder,measurement,value
B1,ERK1/2 phosphorylation in HUVECs,5 fold
